The results in this text go back to patent US20200317768A1 (published 2020).

As a reminder, the Kd is a measure of binding affinity in units of concentration.

For test [1], the target named is T1, cynomolgus monkey FcγRIIa2 extracellular domain with C-terminal His-tag (cynomolgus monkey).
T1 construct: also called cyno FcgRIIa2; cynoFcγRIIa2
T1 chain: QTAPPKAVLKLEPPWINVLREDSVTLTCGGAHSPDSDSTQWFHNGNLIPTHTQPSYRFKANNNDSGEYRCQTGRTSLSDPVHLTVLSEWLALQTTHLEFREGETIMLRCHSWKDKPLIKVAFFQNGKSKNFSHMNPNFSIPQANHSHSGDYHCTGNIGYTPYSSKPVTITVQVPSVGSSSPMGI
The test can be described thus: SPR (BIACORE), antibody captured, FcgR analyte. A general note: In SPR one partner is held on a chip, and binding of the other changes the refractive index at the surface.

Test [2] has as its target T2, cynomolgus monkey FcγRIIa3 extracellular domain with C-terminal His-tag (cynomolgus monkey).
T2 construct: also called cyno FcgRIIa3; cynoFcγRIIa3
T2 chain: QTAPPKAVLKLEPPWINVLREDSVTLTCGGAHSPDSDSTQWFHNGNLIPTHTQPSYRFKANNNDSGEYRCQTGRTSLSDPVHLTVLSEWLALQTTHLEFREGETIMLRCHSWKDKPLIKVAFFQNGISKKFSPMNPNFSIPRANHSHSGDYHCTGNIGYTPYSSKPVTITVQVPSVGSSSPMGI
In words: SPR (BIACORE), antibody captured, FcgR analyte.

For test [3], the target named is T3, cynomolgus monkey FcγRIIb extracellular domain with C-terminal His-tag (cynomolgus monkey).
T3 construct: also called cyno FcgRIIb; cynoFcγRIIb
T3 chain: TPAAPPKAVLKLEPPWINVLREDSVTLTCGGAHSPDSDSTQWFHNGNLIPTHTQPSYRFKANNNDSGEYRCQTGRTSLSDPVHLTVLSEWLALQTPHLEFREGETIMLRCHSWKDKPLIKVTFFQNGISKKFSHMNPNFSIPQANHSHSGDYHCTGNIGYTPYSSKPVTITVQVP
The test can be described thus: SPR (BIACORE), antibody captured, FcgR analyte.

The target of test [4] is T4, cynomolgus monkey FcγRIIIaS extracellular domain with C-terminal His-tag (cynomolgus monkey, UniProt Q8SPW2 21-206 at identity 1.00)).
T4 construct: also called cyno FcgRIIIaS; cynoFcγRIIIaS
T4 chain: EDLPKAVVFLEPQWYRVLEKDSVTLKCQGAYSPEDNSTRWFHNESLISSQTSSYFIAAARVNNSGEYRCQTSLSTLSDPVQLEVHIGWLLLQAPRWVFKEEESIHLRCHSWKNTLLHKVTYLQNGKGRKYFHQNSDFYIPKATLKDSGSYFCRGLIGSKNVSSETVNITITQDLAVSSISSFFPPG
In words: SPR (BIACORE), antibody captured, FcgR analyte.

The target in test [5] is T5, human FcγRIIaH extracellular domain with C-terminal His-tag (human, UniProt P12318 34-217).
T5 construct: also called human FcgRIIaH; FcγRIIa (type H)
T5 sequence: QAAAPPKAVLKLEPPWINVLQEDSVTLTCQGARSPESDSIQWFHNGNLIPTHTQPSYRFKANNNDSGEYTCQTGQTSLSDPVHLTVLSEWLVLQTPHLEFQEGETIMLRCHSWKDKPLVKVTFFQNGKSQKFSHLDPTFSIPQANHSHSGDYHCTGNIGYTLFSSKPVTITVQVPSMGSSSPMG
The test can be described thus: SPR (BIACORE), antibody captured, FcgR analyte.

Test [6] addresses T6, human FcγRIIaR extracellular domain with C-terminal His-tag (human, UniProt P12318 34-217).
T6 construct: also called human FcgRIIaR; FcγRIIa (type R)
T6 chain: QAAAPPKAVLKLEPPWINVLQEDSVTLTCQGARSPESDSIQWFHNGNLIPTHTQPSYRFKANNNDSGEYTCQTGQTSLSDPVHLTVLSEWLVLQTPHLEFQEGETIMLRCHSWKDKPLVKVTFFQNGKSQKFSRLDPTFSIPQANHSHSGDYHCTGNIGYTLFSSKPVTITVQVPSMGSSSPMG
The test can be described thus: SPR (BIACORE), antibody captured, FcgR analyte.

The target of test [7] is T7, human FcγRIIb extracellular domain with C-terminal His-tag (human, UniProt P31994 43-217).
T7 construct: also called human FcgRIIb
T7 sequence: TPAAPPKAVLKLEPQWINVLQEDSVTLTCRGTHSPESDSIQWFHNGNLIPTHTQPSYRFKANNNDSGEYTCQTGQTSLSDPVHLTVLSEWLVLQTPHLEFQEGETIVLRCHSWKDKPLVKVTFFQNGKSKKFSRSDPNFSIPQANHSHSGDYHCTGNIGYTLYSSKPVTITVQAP
In words: SPR (BIACORE), antibody captured, FcgR analyte.

The target in test [8] is T8, cynomolgus monkey FcγRIIb extracellular domain, His-tagged (cynomolgus monkey).
T8 construct: also called cyno FcγRIIb; cynoFcγRIIb; not shown: C-terminal His-tag
T8 chain: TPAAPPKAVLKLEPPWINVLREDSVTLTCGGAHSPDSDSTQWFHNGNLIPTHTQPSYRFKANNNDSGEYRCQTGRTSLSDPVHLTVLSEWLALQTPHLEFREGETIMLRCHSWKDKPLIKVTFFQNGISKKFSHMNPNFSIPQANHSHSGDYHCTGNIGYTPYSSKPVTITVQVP
The test can be described thus: SPR (BIACORE); KD of SG1 divided by KD of variant.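 Further: relative to parent M103205H795-SG1 carrying the SG1 human heavy chain constant region.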

The target of test [9] is T9, human FcγRIIaR extracellular domain, His-tagged (human, UniProt P12318 34-217).
T9 construct: also called human FcγRIIa (type R); FcgRIIaR; not shown: C-terminal His-tag
T9 chain: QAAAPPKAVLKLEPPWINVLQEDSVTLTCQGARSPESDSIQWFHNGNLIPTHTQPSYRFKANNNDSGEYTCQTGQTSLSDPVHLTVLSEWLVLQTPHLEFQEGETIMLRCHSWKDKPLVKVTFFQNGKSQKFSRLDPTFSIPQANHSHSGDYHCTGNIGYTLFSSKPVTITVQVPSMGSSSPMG
The test can be described thus: SPR (BIACORE); KD of SG1 divided by KD of variant.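 Further: relative to parent M103205H795-SG1 carrying the SG1 human heavy chain constant region.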

B1: M103205H795-MY531/M103202L889-SK1 (antibody, human IgG1, kappa)
heavy: QVTLKESGPVLVKPTETLTLTCTVSGIDLSHDDISWVRQAPGKGLEWVGIISYAGSTYYASWAKGRLTISKDTSKNQVVLTMTNMDPVDTATYYCARGVPAYSHGGDLWGQGTLVTVSSASTKGPSVFPLAPSSKSTSGGTAALGCLVKDYFPEPVTVSWNSGALTSGVHTFPAVLQSSGLYSLSSVVTVPSSSLGTQTYICNVNHKPSNTKVDKKVEPKSCDKTHTCPPCPAPEWLTGPSVFLFPPKPKDTLMISRTPEVTCVVVDVSDEDPEVKFNWYVDGVEVHNAKTKPREEQYNSTYRVVSVLTVLHQDWLNGKEYKCKVSNTALPKPIEKTISKAKGQPREPQVYTLPPSREEMTKNQVSLTCLVKGFYPSDIAVEWESNGQPENNYKTTPPVLDSDGSFFLYSKLTVDKSRWQQGNVFSCSVMHEALHNHYTQKSLSLSP
light: DIVMTQSPATLSLSPGERATLSCTSSQSVYHANWLSWFQQKPGQPPKLLIYWASTLAYGVPSRFSGSGSGTDFTLTISSLQPEDAATYYCAGGYGGGRYAFGQGTKVEIKRTVAAPSVFIFPPSDEQLKSGTASVVCLLNNFYPREAKVQWKVDNALQSGNSQESVTEQDSKDSTYSLSSTLTLSKADYEKHKVYACEVTHQGLSSPVTKSFNRGEC
notes: Substitutions introduced into M103205H795-SG1, expressed with M103202L889-SK1 as light chain; EU numbering
Take B1: the Kd in [1] came out at 920 nM; in [2] it was 2200 nM; in test [3], 270 nM; in test [4], 1000 nM; in [5], 290 nM; in test [6], 410 nM. For the same molecule, the Kd in [7] was 1500 nM.

B2: M103205H795-MY441/M103202L889-SK1 (antibody, human IgG1, kappa)
heavy: QVTLKESGPVLVKPTETLTLTCTVSGIDLSHDDISWVRQAPGKGLEWVGIISYAGSTYYASWAKGRLTISKDTSKNQVVLTMTNMDPVDTATYYCARGVPAYSHGGDLWGQGTLVTVSSASTKGPSVFPLAPSSKSTSGGTAALGCLVKDYFPEPVTVSWNSGALTSGVHTFPAVLQSSGLYSLSSVVTVPSSSLGTQTYICNVNHKPSNTKVDKKVEPKSCDKTHTCPPCPAAELLTGPSVFLFPPKPKDTLMISRTPEVTCVVVDVSDEDPEVKFNWYVDGVEVHNAKTKPREEQYNSTYRVVSVLTVLHQDWLNGKEYKCKVSNKALPKPIEKTISKAKGQPREPQVYTLPPSREEMTKNQVSLTCLVKGFYPSDIAVEWESNGQPENNYKTTPPVLDSDGSFFLYSKLTVDKSRWQQGNVFSCSVMHEALHNHYTQKSLSLSP
light: DIVMTQSPATLSLSPGERATLSCTSSQSVYHANWLSWFQQKPGQPPKLLIYWASTLAYGVPSRFSGSGSGTDFTLTISSLQPEDAATYYCAGGYGGGRYAFGQGTKVEIKRTVAAPSVFIFPPSDEQLKSGTASVVCLLNNFYPREAKVQWKVDNALQSGNSQESVTEQDSKDSTYSLSSTLTLSKADYEKHKVYACEVTHQGLSSPVTKSFNRGEC
notes: copies: 2 + 2
For the molecule B2, the “KD fold (SG1 = 1)” value in [8] was 2 fold; in test [9], 1.8 fold.

B3: M103205H795-MY265/M103202L889-SK1 (antibody, human IgG1, kappa)
heavy: QVTLKESGPVLVKPTETLTLTCTVSGIDLSHDDISWVRQAPGKGLEWVGIISYAGSTYYASWAKGRLTISKDTSKNQVVLTMTNMDPVDTATYYCARGVPAYSHGGDLWGQGTLVTVSSASTKGPSVFPLAPSSKSTSGGTAALGCLVKDYFPEPVTVSWNSGALTSGVHTFPAVLQSSGLYSLSSVVTVPSSSLGTQTYICNVNHKPSNTKVDKKVEPKSCDKTHTCPPCPAPELLTGPSVFLFPPKPKDTLMISRTPEVTCVVVDVSDEDPEVKFNWYVDGVEVHNAKTKPREEQYNSTYRVVSVLTVLHQDWLNGKEYKCKVSNKALPKPIEKTISKAKGQPREPQVYTLPPSREEMTKNQVSLTCLVKGFYPSDIAVEWESNGQPENNYKTTPPVLDSDGSFFLYSKLTVDKSRWQQGNVFSCSVMHEALHNHYTQKSLSLSP
light: DIVMTQSPATLSLSPGERATLSCTSSQSVYHANWLSWFQQKPGQPPKLLIYWASTLAYGVPSRFSGSGSGTDFTLTISSLQPEDAATYYCAGGYGGGRYAFGQGTKVEIKRTVAAPSVFIFPPSDEQLKSGTASVVCLLNNFYPREAKVQWKVDNALQSGNSQESVTEQDSKDSTYSLSSTLTLSKADYEKHKVYACEVTHQGLSSPVTKSFNRGEC
notes: also called MS103205H795-MY265; copies: 2 + 2
Consider B3, for which the “KD fold (SG1 = 1)” value came out at 3.1 fold in test [8] and 2.5 fold in [9].
